Assay type: in vivo, human
Settings: mean of the five repeat experiments; subcutaneous; controller PK setting SLOW

Insulin lispro
Inferred lispro PK t95%, Mean: 8.9 h | Inferred lispro PK tmax, Mean: 1.48 h

From article PMC4242106 (Science translational medicine, 2010)
